The values below come from patent US20200352995A1.

The target of assay [1] is LAG3 (CD223) on BCMA-specific CTL (human) (UniProt P18627). Briefly: cell-based or functional assay.
Assay [2] deals with OX40 (CD134) on BCMA-specific CTL (human) (UniProt P43489). The experiment in a line: cell-based or functional assay.
Chain of OX40 (CD134) on BCMA-specific CTL (human) (P43489 29-277): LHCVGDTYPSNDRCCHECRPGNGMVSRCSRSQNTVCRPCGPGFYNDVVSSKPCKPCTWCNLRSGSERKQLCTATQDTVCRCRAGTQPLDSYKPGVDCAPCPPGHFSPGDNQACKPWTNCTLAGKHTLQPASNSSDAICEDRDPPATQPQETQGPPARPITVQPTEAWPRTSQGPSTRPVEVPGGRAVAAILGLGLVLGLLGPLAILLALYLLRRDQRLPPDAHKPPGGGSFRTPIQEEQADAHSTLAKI

Chain of LAG3 (CD223) on BCMA-specific CTL (human) (P18627 23-525): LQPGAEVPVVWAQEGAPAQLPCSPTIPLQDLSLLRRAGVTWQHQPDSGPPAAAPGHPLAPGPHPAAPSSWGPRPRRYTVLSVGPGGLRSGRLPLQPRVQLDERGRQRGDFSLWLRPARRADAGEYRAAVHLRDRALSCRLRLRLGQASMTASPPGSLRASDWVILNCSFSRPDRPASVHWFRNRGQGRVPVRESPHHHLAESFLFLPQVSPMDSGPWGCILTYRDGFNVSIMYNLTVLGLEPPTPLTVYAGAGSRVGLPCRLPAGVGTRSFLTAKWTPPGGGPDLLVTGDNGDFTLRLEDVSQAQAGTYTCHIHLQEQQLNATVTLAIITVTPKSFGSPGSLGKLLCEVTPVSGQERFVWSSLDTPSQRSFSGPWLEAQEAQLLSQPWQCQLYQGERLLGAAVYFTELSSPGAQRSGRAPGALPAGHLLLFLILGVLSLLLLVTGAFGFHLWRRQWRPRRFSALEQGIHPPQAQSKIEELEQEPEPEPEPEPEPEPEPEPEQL

In assay [1], “Clinical grade mAb to LAG3 (Bristol-Myers Squibb) (antibody)” returned a cytotoxic activity (CD107a degranulation) by memory CTL against HLA-A2+ McCAR MM cells of 14.5% and a cytotoxic activity (CD107a degranulation) by memory CTL against HLA-A2+ U266 MM cells of 35.8%.

Turning to “Clinical grade mAb to OX40 (Bristol-Myers Squibb) (antibody)”, in assay [2], the cytotoxic activity (CD107a degranulation) by memory CTL against HLA-A2+ McCAR MM cells is 20% and the cytotoxic activity (CD107a degranulation) by memory CTL against HLA-A2+ U266 MM cells was 39.5%.
